# Experimental data published in US20060153807A1, “Vector-mediated gene regulation in midbrain dopamine neurons” (priority 2005, published 2006).
# T1: citrate synthase (CS) (Sus scrofa, UniProt P00889)
# T1 construct: purchased Sigma
# T1 sequence (P00889 28-464): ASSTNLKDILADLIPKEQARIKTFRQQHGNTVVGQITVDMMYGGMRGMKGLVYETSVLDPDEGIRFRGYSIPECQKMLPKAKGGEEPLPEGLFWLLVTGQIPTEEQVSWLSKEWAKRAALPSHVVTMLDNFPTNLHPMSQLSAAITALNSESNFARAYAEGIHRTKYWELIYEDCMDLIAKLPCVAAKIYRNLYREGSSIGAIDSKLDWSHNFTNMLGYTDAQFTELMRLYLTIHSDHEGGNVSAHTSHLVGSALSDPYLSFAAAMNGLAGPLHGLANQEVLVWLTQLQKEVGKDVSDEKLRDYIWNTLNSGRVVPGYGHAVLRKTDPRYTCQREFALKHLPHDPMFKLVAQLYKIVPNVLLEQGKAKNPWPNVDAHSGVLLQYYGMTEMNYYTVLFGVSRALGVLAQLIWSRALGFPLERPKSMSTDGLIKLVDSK
# How the values were obtained:
# citrate synthase (CS) = target: T1, citrate synthase (CS); experiment: suppression of heat-induced aggregation of citrate synthase (chaperone assay); format: biochemical; details: for redox regulation: chaperone activity in the CS aggregation assay after DTT: preincubation with 0.5 mM DTT for 10 min at 4° C.; for chaperone activity: suppression of heat-induced CS aggregation: 0.8 μM CS, 43° C., DJ-1 0.5-4.0 μM
# Description: (§1) FIG. 22 illustrates that DJ-1 is a redox-dependent molecular chaperone. (A) Aggregation of CS was monitored at 43° C. after addition of either 0.8 μM CS alone (black), or along with 8.0 μM RNase A (purple), 0.5 μM DJ-1 (aqua), 2.0 μM DJ-1 (blue), 4.0 μM DJ-1 (red), or 2.0 μM Hsp27 (green). (B) Aggregation of 0.8 μM CS after 30 min at 4° C. […] (C) Aggregation of insulin (26 μM) B chains induced by 20 mM DTT at 25° C. Insulin alone (black) or in the presence of 4.0 μM RNase A (purple), 0.5 μM DJ-1 (aqua), 2.0 μM DJ-1 (blue), 4.0 μM DJ-1 (red), or 2.0 μM Hsp27 (green). (D) CS thermal aggregation (unfilled bar) is suppressed by 4 μM DJ-1 (black bar), but chaperone activity is abrogated upon incubation of DJ-1 with 0.5 mM DTT for 10 min at 4° C. (gray bar). Further treatment of DTT-reduced DJ-1 with 10 mM H2O2 for 10 min at 4° C. leads to reactivation of CS suppression (hatched bar).
# To test the redox regulation of DJ-1, the inventors assayed chaperone activity in the CS aggregation assay in the presence or absence of the reducing agent DTT. […] (FIG. 22D). […] To further test whether redox regulation might govern DJ-1 chaperone activity, reactivation studies using reduced DJ-1 were performed. DTT-reduced DJ-1 was incubated with H2O2 (10 mM in aggregation buffer for 10 min at 4° C. followed by dialysis against aggregation buffer for 2 h), and subsequently chaperone activity was measured in the CS thermal aggregation assay. […] This was not an indirect effect of residual H2O2 on CS aggregation, as H2O2 treatment of CS increased aggregation (unpublished data).
# (§2) Aggregation assays. CS aggregation was performed in 40 mM HEPES (pH 7.8), 20 mM potassium hydroxinde, 50 mM potassium chloride, and 10 mM ammonium sulfate, and monitored in a thermostat-controlled fluorescence spectrophotometer with excitation and emission wavelengths at 500 nm and slit widths at 2.5 nm. Insulin aggregation was performed as described (Giasson et al. 2000). CS, insulin, RNase A, and GST were obtained from Sigma; human Hsp27 was obtained from Stressgen.
# insulin = experiment: aggregation suppression of reduced insulin (DTT-induced B chain aggregation); format: biochemical; details: 20 mM DTT
# Description: as §1, §2
# αSyn = αSyn (Homo sapiens, UniProt P37840); experiment: αSyn protofibril formation assay in vitro; format: biochemical; details: 200 μM αSyn, 100 μM test protein (molar ratio 1:2), 2 h at 55° C.
# Description: The analysis of DJ-1 chaperone function to a candidate DJ-1 substrate, αSyn (FIG. 23) was extended.
# αSyn protofibril and fibril formation assays were performed essentially as described (Uversky et al.). Briefly, protofibrils were formed by incubation of 200 μM WT synuclein with 100 μM DJ-1 or control chaperone protein in PBS for 2 h at 55° C. Samples were mixed with SDS loading buffer and analyzed by SDS-PAGE and Western blotting using αSyn LB509 antibody (Zymed). Quantitation of high molecular weight αSyn was performed using NIH Image J. Integrated pixel intensity of high molecular weight synuclein for each sample was normalized to monomeric synuclein intensity.
# [1] = tested on: glutathione S-transferase (GST); details: GST 0.4 μM, test protein 2 μM
# Description: DJ-1 chaperone activity was quantified in the suppression of heat-induced aggregation of citrate synthase (CS) and glutathione S-transferase (GST), two well-characterized protein chaperone assays. These proteins lose their native conformation and undergo aggregation during incubation at 43° C. and 60° C., respectively.
# DJ-1-deficient ES cells = experiment: rescue of DJ-1-deficient ES cells from H2O2 toxicity, MTT assay; details: transient transfection of expression plasmid, 10 μM H2O2 for 15 h, vs vector alone
# Description: 48 h after transfection, cells were exposed to 10 μM H2O2 for 15 h and then assayed by MTT reduction. […] Data are shown as the mean±SEM and were analyzed by ANOVA with Fisher's post-hoc test.
# (C) DJ-1-deficient ES cells were transiently transfected with vector alone, WT DJ-1, or DJ-1 cysteine mutants, and exposed to 10 μM H2O2 for 15 h followed by MTT assay. […] Data are shown as the mean±SEM and were analyzed by ANOVA with Fisher's post-hoc test. * p<0.05.
# ES cells plated in 96-well format (2.3×10^4 cells/well) were treated for 15 hours with H2O2 in ES media deficient in β-mercaptoethanol (Abeliovich et al. 2000). Cell viability (as a percent of untreated control) was determined by MTT assay in triplicate (Fezoui et al. 2000).
# The inventors further investigated the activity of the cysteine-mutant forms of human DJ-1 in vivo in the complementation of DJ-1-deficient ES cells.
# [2] = tested on: Undifferentiated ES cells; experiment: rescue from Q333P mutant NFL toxicity in undifferentiated ES cells, MTT reduction assay; format: cell-based; details: 72 h after transfection
# Description: FIG. 30 depicts the additional studies of DJ-1 mutations. […] Cells from FIG. 4M were quantified via ToPro3 nuclear staining and are expressed as number of cells per field from ten independent fields in each of three wells. […] GFP positive transfected cells from FIG. 5A-5L were quantified and are expressed as number of transfected cells per field from ten independent fields in each of three wells. […] After 72 h, cells were assayed by MTT reduction assay (which detects reduction of 3-(4,5-dimethylthiazol-2-yl)-2,5-diphenyltetrazolium bromide by metabolic enzymes) (Martinat et al. 2004). […] Undifferentiated ES cells were transfected with Q333P mutant NFL along with WT human DJ-1, C53A mutant DJ-1, or vector control. After 72 h, cells were assayed by MTT reduction assay (Martinat et al. 2004). […] Cells were differentiated for 72 h and lysed to produce Triton X-100-soluble and -insoluble fractions. Lysates were exposed to Western blotting with an antibody against transfected human NFL.
Molecule,redox regulation: chaperone activity in the CS aggregation assay after DTT (citrate synthase (CS)),chaperone activity: suppression of reduced insulin aggregation (insulin),inhibition of αSyn protofibril formation (αSyn),suppression of GST thermal aggregation [1],chaperone activity: suppression of heat-induced CS aggregation (citrate synthase (CS)),viability of H2O2-treated DJ-1 knockout cells after transfection (DJ-1-deficient ES cells),rescue from Q333P mutant NFL toxicity [2]
"Hsp27: well-described small cytoplasmic chaperone, human Hsp27, obtained from Stressgen; positive control [reference compound]",did not modify suppression of CS aggregation,effectively inhibited the aggregation of insulin,failed to inhibit the generation of αSyn protofibrils,suppressed,,,
"RNase A: negative control protein, obtained from Sigma (protein, UniProt P61823 27-150, looked up) Ribonuclease pancreatic: KETAAAKFERQHMDSSTSAASSSNYCNQMMKSRNLTKDRCKPVNTFVHESLADVQAVCSQKNVACKNGQTNCYQSYSTMSITDCRETGSSKYPNCAYKTTQANKHIIVACEGNPYVPVHFDASV",,neither DJ-1 nor the negative control protein RNase A displayed chaperone activity,,,failed to demonstrate chaperone activity,,
"C106A: DJ-1 cysteine-to-alanine mutant at cysteine 106 (protein, UniProt Q99497 1-189, looked up, variant C106A) MASKRALVILAKGAEEMETVIPVDVMRRAGIKVTVAGLAGKDPVQCSRDVVICPDASLEDAKKEGPYDVVVLPGGNLGAQNLSESAAVKEILKEQENRKGLIAAIAAGPTALLAHEIGFGSKVTTHPLAKDKMMNGGHYTYSENRVEKDGLILTSRGPGTSFEFALAIVEALNGKEVAAQVKAPLVLKD",unaffected,,,,does not alter the basal activity,robustly rescued DJ-1 knockout cells from H2O2 toxicity,
"C53A: DJ-1 cysteine-to-alanine mutant at cysteine 53 (protein, UniProt Q99497 1-189, looked up, variant C53A) MASKRALVILAKGAEEMETVIPVDVMRRAGIKVTVAGLAGKDPVQCSRDVVIAPDASLEDAKKEGPYDVVVLPGGNLGAQNLSESAAVKEILKEQENRKGLIAAICAGPTALLAHEIGFGSKVTTHPLAKDKMMNGGHYTYSENRVEKDGLILTSRGPGTSFEFALAIVEALNGKEVAAQVKAPLVLKD",,,,,completely abrogates chaperone activity,failed to protect from H2O2 toxicity,unable to rescue cells from Q333P mutant NFL toxicity
